Measured values taken from article PMC11338267, “Phosphoglycerate kinase is a central leverage point in Parkinson’s disease–driven neuronal metabolic deficits” (Science Advances, 2024).

Molecular target: T1, untagged PGK1 (phosphoglycerate kinase 1), cleaved from His-SUMO-PGK1 (UniProt P00558 1-417)
T1 construct: phosphoglycerate kinase 1 (PGK1), full-length protein; also called His-tagged SUMO-PGK1; cleaved PGK1; source: E. coli BL21 (DE3), purified (Ni-NTA, SUMO protease cleavage, second Ni-NTA flow-through, Superdex200 gel filtration)
T1 sequence (looked up): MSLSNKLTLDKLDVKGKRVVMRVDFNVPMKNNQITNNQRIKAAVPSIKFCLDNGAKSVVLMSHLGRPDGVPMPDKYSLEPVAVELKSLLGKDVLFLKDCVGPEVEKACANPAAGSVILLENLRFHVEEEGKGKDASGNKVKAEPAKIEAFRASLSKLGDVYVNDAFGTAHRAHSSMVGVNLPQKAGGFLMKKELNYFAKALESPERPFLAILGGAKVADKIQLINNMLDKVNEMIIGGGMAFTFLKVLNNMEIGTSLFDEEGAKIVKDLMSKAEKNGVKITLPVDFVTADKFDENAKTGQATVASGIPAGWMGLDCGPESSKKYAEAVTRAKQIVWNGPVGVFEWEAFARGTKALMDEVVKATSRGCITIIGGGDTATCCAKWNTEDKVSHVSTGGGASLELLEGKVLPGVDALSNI
Test: MST; His-DJ-1 labelled with RED-tris-NTA (10 ul of 100 nM added to each sample), PGK1 titrated in a 16-step 1:1 serial dilution from a 152 uM stock; PBS-T buffer; 30 min at room temperature in the dark; Monolith NT.115, 40% LED, medium MST power
Settings: both partners purified

- Kd: ~15 µM
B1: His-tagged DJ-1 full-length protein (natural protein, UniProt Q99497 1-189, looked up)
chain: MASKRALVILAKGAEEMETVIPVDVMRRAGIKVTVAGLAGKDPVQCSRDVVICPDASLEDAKKEGPYDVVVLPGGNLGAQNLSESAAVKEILKEQENRKGLIAAICAGPTALLAHEIGFGSKVTTHPLAKDKMMNGGHYTYSENRVEKDGLILTSRGPGTSFEFALAIVEALNGKEVAAQVKAPLVLKD
notes: DJ-1 (product of the PARK7 gene), full-length protein; For MST the His tag was labelled non-covalently with the dye RED-tris-NTA; also called His-DJ-1; PARK7/DJ-1; source: E. coli BL21 (DE3), purified (Ni-NTA, Superdex200 gel filtration)
